Results from publication PMC10492700.

Legend:
Test in all cases: NMR
Details in all cases: 308 K; not stated (50 mM buffer); 50 mM MES, MOPS, HEPES, TRIS/HCl or CAPS; zinc-loaded, inhibitor-free, folded
His107 = His107 (UniProt position 107, GQGSEHTVDKK)
His96 = His96 (UniProt position 96, IQFHFHWGSLD)
His119 = His119 (UniProt position 119, YAAELHLVHWN)

Carbonic anhydrase II (HCAII), wild type (Homo sapiens)
pKa (His107): <5.1 (not titrating in the studied pH range, 5.1-9.9) | pKa (His96): <5.1 (not titrating in the studied pH range, 5.1-9.9) | pKa (His119): <5.1 (not titrating in the studied pH range, 5.1-9.9)
